Experimental data reported in patent publication US20040005554A1 (APPLIED RESEARCH SYSTEMS ARS HOLDING N V, published 2004).

Biological target: the molecule itself
Experiment: SDS-PAGE (silver stain) and anti-FLAG western blot of immunoaffinity-purified protein, with and without reduction

B1: FLAG-BRP fusion protein (N-terminal FLAG tag on predicted mature human BRP, secreted through the mouse preprotrypsin signal) (other)
chain: DYKDDDDKASSGNLRTFVGCAVREFTFLAKKPGCRGLRITTDACWGRCETWEKPILEPPYIEAHHRVCTYNETKQVTVKLPNCAPGVDPFYTYPVAIRCDCGACSTATTECETI
notes: The BRP part comes from BRP-NTAP (BRP without the secretory signal peptide); also called FLAG-BRP in pCEP4
B1: binds.
